Our source for the percent 24-mer, stoichiometry N and percent dimeric form values is publication PMC8190868.

The target of test [1] is A. fulgidus humanized ferritin (chimeric ferritin: Archaeoglobus fulgidus ferritin with a grafted surface loop of human H ferritin) (Archaeoglobus fulgidus). In words: SEC; HP-SEC of the HumFt-PAMAM nanoparticle after up to 24 h at 37 °C in 20 mM HEPES with 50 mM MgCl2, in PBS, or in RPMI 1640 with 10% FCS. For orientation: SEC sorts molecules by how far they enter the pores of the column.

The target is the same in test [2]. Nature of the test: negative staining electron microscopy; TEM, HumFt 0.02 mg/mL with 50 mM Mg2+ and/or G4 PAMAM; 2% uranyl acetate or 4% ammonium molybdate.
Test [3] has the same target. In words: negative staining electron microscopy; TEM, HumFt 0.02 mg/mL in HEPES buffer without magnesium ions; 2% uranyl acetate or 4% ammonium molybdate.
For test [4] the target is unchanged. In words: SEC; HP-SEC of HumFt with divalent cations only (no PAMAM); dimers to 24-mer.
The target is the same in test [5]. Nature of the test: SEC; HP-SEC of the HumFt-G4 PAMAM/FITC nanoparticle; mobile phase 20 mM HEPES pH 7.4 with 50 mM MgCl2; UV 220 nm and fluorescence; dimers to 24-mer.
The target is the same in test [6]. In words: SEC; HP-SEC, no MgCl2; open HumFt 5 mg/mL (10 uM 24-mer) added to G3, G4 or G5 PAMAM at HumFt:PAMAM 1:10, 1:20, 1:30; mobile phase 20 mM HEPES pH 7.4; UV 220 nm; dimers to 24-mer.

The substance “A. fulgidus humanized ferritin (chimeric ferritin: Archaeoglobus fulgidus ferritin with a grafted surface loop of human H ferritin)” displayed a percent 24-mer in test [1] of more than 95%. Besides, the stoichiometry N (usually a count of units in the complex or per binding partner) stood at 24 in test [2], 2 in test [3], 24 in test [5] and 24 in test [6]. Also, the percent dimeric form in test [4] was 10 to 15%; in test [5], less than 2%.
